Laboratory results: PMC6128619, “Allosteric Activation Shifts the Rate-Limiting Step in a Short-Form ATP Phosphoribosyltransferase” (Biochemistry, 2018)
Like-named read-outs stand apart in the source and are kept apart here.

T1: PaHisGS (short-form ATP phosphoribosyltransferase catalytic subunit) (Psychrobacter arcticus, UniProt Q4FQF7)
T1 construct: gene hisG
T1 sequence (Q4FQF7 1-231): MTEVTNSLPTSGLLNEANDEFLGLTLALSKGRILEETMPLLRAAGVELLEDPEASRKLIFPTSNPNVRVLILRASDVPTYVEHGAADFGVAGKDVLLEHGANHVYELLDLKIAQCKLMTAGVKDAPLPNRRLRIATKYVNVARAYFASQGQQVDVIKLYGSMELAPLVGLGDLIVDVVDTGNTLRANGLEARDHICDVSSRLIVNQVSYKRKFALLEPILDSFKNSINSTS

B1: PaATPPRT (Psychrobacter arcticus 273-4) (protein)
chain: T1 sequence (Q4FQF7 1-231)
notes: hetero-octamer of four HisGS and four HisZ
B2: PaHisGS (short-form ATP phosphoribosyltransferase catalytic subunit) (Psychrobacter arcticus 273-4) (protein)
chain: T1 sequence (Q4FQF7 1-231)

Columns and labels:
[1] = target: T1, PaHisGS (short-form ATP phosphoribosyltransferase catalytic subunit); assay: […] NMR of product formation and steady-state kinetics (alternative substrate, with PRPP); assay type: biochemical
[2] = target: T1, PaHisGS (short-form ATP phosphoribosyltransferase catalytic subunit); assay: ITC (single-site model, […]); DSF Tm shift +[…] °C; assay type: binding
[3] = target: T1, PaHisGS (short-form ATP phosphoribosyltransferase catalytic subunit); assay: steady-state kinetics, initial velocity patterns, […] NMR of turnover (no ITC or DSF signal without PRPP); assay type: biochemical
[4] = target: T1, PaHisGS (short-form ATP phosphoribosyltransferase catalytic subunit); assay: steady-state inhibition kinetics, absorbance at […] nm (IC50 […]; Ki […] vs PRPP, […] vs ATP); assay type: biochemical
[5] = substrate: Nc1ncnc2c1ncn2[C@@H]1O[C@H](COP(=O)(O)OP(=O)(O)OP(=O)(O)O)[C@@H](O)[C@H]1O; assay: purified protein, by the assay type; parameters: steady-state substrate saturation kinetics with Mg2+, Michaelis-Menten fit
Excerpt: (§1) Replacement of Mg^2+ by Mn^2+ is a common strategy in enzymology,[36] having been employed to uncover rate-limiting steps in reactions involving stabilization of phosphate groups.[37] HisGL ATPPRTs have been reported to have their activities either unaltered or decreased by changing the divalent metal in the reaction from the physiological Mg^2+ to Mn^2+, but no mechanistic inference has been drawn.[17],[38] […] Mn^2+ led to 2.6- and 11-fold increases in PaHisGSkcat and kcat/KM^ATP, respectively, as compared with Mg^2+. The change in kcat/KM^ATP was driven in large part by a reduction in KM^ATP. LC-MS analysis of the PaHisGS reaction with Mn^2+ confirmed the same product, PRATP, was being formed (Figure S5).  Figure 5 Steady-state kinetics with Mg^2+ (green) and Mn^2+ (blue). Saturation curves varying either PRPP or ATP concentration with saturating concentration of the cosubstrate for (A and B) PaHisGS and (C and D) PaATPPRT. Data points are mean ± SE, and lines are data fitting to eq 3. Kinetic and DSF data were analyzed by the nonlinear regression function of SigmaPlot 13 (SPSS Inc.). Data points and error bars in graphs are represented as mean ± standard error, and kinetic and equilibrium constants are presented as mean ± fitting error. Initial rate data with varying concentrations of PaHisZ were fitted to eq 1. The concentration of PaATPPRT at any concentration of PaHisGS and PaHisZ was calculated according to eq 2. Substrate saturation data were fitted to eq 3. Inhibition data at fixed substrate concentrations were fitted to eq 4, and competitive inhibition data were fitted to eq 5. Initial velocity patterns were fitted to eq 6, and pre-steady-state kinetics under multiple-turnover conditions was fitted to eq 7. In eqs 1–7, v is the initial rate, Vmax is the maximal velocity, G is the concentration of PaHisGS, Z is the concentration of PaHisZ, KD is the equilibrium dissociation constant, PaATPPRT is the concentration of PaHisGS-PaHisZ complex, S is the concentration of the varying substrate, kcat is the steady-state turnover number, KM is the apparent Michaelis constant, ET is total enzyme concentration, vi is the initial rate in the presence of inhibitor, IC50 is the half-maximal inhibitory concentration, Ki is the inhibitor dissociation constant, A and B are the first and second substrates to bind to the enzyme, respectively, Ka and Kb are their respective Michaelis constants, Kia is the apparent dissociation constant for the complex between enzyme and substrate A when the concentration of B approaches zero, t is time, P(t) is product concentration at time t, A0 is the amplitude of the burst phase, and kburst is the first-order rate constant of product formation in the burst phase. DSF thermal denaturation data were fitted to eq 8,[32] where FU is fraction unfolded, T is the temperature in °C, Tm is the melting temperature, c is the slope of the transition region, and LL and UL are folded and unfolded baselines, respectively. [drawing 1] 1 [drawing 2] 2 [drawing 3] 3 [drawing 4] 4 [drawing 5] 5 [drawing 6] 6 [drawing 7] 7 [drawing 8] 8

[6] = substrate: O=P(O)(O)OC[C@H]1O[C@H](OP(=O)(O)OP(=O)(O)O)[C@H](O)[C@@H]1O; assay: purified protein, by the assay type; parameters: steady-state substrate saturation kinetics with Mg2+, Michaelis-Menten fit
Excerpt: as §1

[7] = substrate: Nc1ncnc2c1ncn2[C@@H]1O[C@H](COP(=O)(O)OP(=O)(O)OP(=O)(O)O)[C@@H](O)[C@H]1O; assay: purified protein, by the assay type; parameters: steady-state kinetics, spectrophotometric PRATP formation, substrate saturation fitted for KM
Method: as §1, with “For a quantitative comparison of the reactions with ATP and ADP, steady-state kinetic analysis of the reaction with either substrate was carried out (Figure 4) and kinetic parameters are summarized in Table S3. […] Replacement” for “Replacement”, “S5).” for “S5).  Figure 5 Steady-state kinetics with Mg^2+ (green) and Mn^2+ (blue). Saturation curves varying either PRPP or ATP concentration with saturating concentration of the cosubstrate for (A and B) PaHisGS and (C and D) PaATPPRT. Data points are mean ± SE, and lines are data fitting to eq 3.”

[8] = substrate: O=P(O)(O)OC[C@H]1O[C@H](OP(=O)(O)OP(=O)(O)O)[C@H](O)[C@@H]1O; assay: purified protein, by the assay type; parameters: steady-state kinetics, spectrophotometric PRATP formation, substrate saturation fitted for KM
Method: as §1, with “For a quantitative comparison of the reactions with ATP and ADP, steady-state kinetic analysis of the reaction with either substrate was carried out (Figure 4) and kinetic parameters are summarized in Table S3. […] Replacement” for “Replacement”, “S5).” for “S5).  Figure 5 Steady-state kinetics with Mg^2+ (green) and Mn^2+ (blue). Saturation curves varying either PRPP or ATP concentration with saturating concentration of the cosubstrate for (A and B) PaHisGS and (C and D) PaATPPRT. Data points are mean ± SE, and lines are data fitting to eq 3.”

Molecule	Km [7]	kcat [7]	kcat/Km [7]	Km [8]	kcat [8]	kcat/Km [8]	further results
Nc1ncnc2c1ncn2[C@@H]1O[C@H](COP(=O)(O)OP(=O)(O)O)[C@@H](O)[C@H]1O [ADP]							31P NMR of product formation and steady-state kinetics (alternative substrate, w) [1]: establishing that ADP can replace ATP as a substrate for PaHisGS
O=P(O)(O)OC[C@H]1O[C@H](OP(=O)(O)OP(=O)(O)O)[C@H](O)[C@@H]1O [PRPP]							Kd [2]: 12 ± 2 µM
Nc1ncnc2c1ncn2[C@@H]1O[C@H](COP(=O)(O)OP(=O)(O)OP(=O)(O)O)[C@@H](O)[C@H]1O [ATP]							steady-state kinetics, initial velocity patterns, 31P NMR of turnover (no ITC or) [3]: once saturated PaHisGS turns over ATP and ADP just as effectively
Nc1ncnc2c1ncn2[C@@H]1O[C@H](COP(=O)(O)O)[C@@H](O)[C@H]1O [AMP]							Ki [4]: 25 ± 5 µM
B1	190 ± 30 µM	2.1 ± 0.1 s⁻¹	11100 ± 2000 M⁻¹ s⁻¹	280 ± 60 µM	2.1 ± 0.1 s⁻¹	7500 ± 2000 M⁻¹ s⁻¹	Km [5]: 720 ± 90 µM; kcat [5]: 2.7 ± 0.1 s⁻¹; kcat/Km [5]: 3800 ± 500 M⁻¹ s⁻¹; Km [6]: 430 ± 60 µM; kcat [6]: 2.7 ± 0.1 s⁻¹; kcat/Km [6]: 6000 ± 900 M⁻¹ s⁻¹
B2	300 ± 50 µM	0.39 ± 0.05 s⁻¹	1300 M⁻¹ s⁻¹	600 ± 200 µM	0.39 ± 0.05 s⁻¹	700 ± 200 M⁻¹ s⁻¹	
